Target: recombinant Nodulin 22 (PvNod22) with a 6xHis-tag at the N-terminus, lacking the ER-signal peptide (Phaseolus vulgaris L.)
Assay: ITC; dilution experiment: PvNod22 injected (10 x 2 µL) into buffer, PBS pH 7.5, 25 °C; agglomerates to smaller oligomers; apparent
Set-up: dH (of dissociation): unit not given here

Kd: 9.13 µM
dH (of dissociation): -49600
Substance: recombinant Nodulin 22 (PvNod22) with a 6xHis-tag at the N-terminus, lacking the ER-signal peptide (natural protein)

— paper PMC9783675
